From the domain aggregation screens of Martell et al. (2025)

Assay: soluble fraction after stress (log2 fold change); higher = more stays soluble; pooled small domains, quantitative proteomics
Conditions: stress: pH 4
In short: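 How much of each domain stays soluble after acid stress, expressed as a fold change, is used to gauge aggregation propensity. Pooled custom libraries of small domains underwent pH 4 stress before high-throughput quantitative proteomics. A higher log2 value means more of the domain stayed soluble.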
For “HMNIGVEQIEQMERGALITLWQELIDKPLPRHMSIVFLRQVLAFEVQSKQNGGLPRGFITLLNKQAD”, the “soluble fraction (log2)” value was -0.868. In the case of “HMNIKITKSKNSEHYSIIYNTKINGKRTSKIYENIGNFEKLKLRAGEQEPIEWLKNYVSELNKKQKEDT”, the “soluble fraction (log2)” value is reported as 0.22. With “HMNIKYDFPTNSPLEMMRNLFDSNSQIINDLKDGFAMANSLNEQGLANFFAERIDKHQFWSWQLSASL” the “soluble fraction (log2)” value was 0.177. For “HMNILDPTVMKNILDKNHEEFIAIYESAPLGQKTIINSMVFDKRLNGENVDANILMYLQNKTNIDYINIEP”, the “soluble fraction (log2)” value was -1.47. For “HMNILNYIIENENQEVRVDKFLSDTIEDMSRSSVASIIEDGGLLVNDKLQNKKYKLKIGDKVQFTVPDPV”, the “soluble fraction (log2)” value was -0.121. With “HMNILVAISDTGEIWINKRRVDARAVQANIERLHAENPQGTVVIQADKQATTETLIKVMDASRAAGVFDVS” the “soluble fraction (log2)” value was -0.759. With “HMNINLDINTYTVKELEKLLKLEVPYSDNNVFEKKNLMVKMIQTSTIAETKKEELYIFLDNIYNRLTNNLE” the “soluble fraction (log2)” value was -0.942. For “HMNISLGALVTITDQKGRSHTVTLESGKQFFTNHGSINHDEIIKAGEGGVVASSSGMLYTIFTP”, the “soluble fraction (log2)” value was -0.551. In the case of “HMNISRESLIGQILATLNKNPEEGFNYKQIAKRLNITDSPGRQMISDLLRELSKHGSLQEISHGKYKIKV”, the “soluble fraction (log2)” value is reported as 0.215. With “HMNITHEINVKSKSKIDFLENNKNLAQFFLTKNPNQFNYNLVFSDKSELNIIKEKIESHKDIEDIDIRYG” the “soluble fraction (log2)” value was -1.11. With “HMNIVINVDTPTFEQMKATYQAPGTLPAGASFHAKLKGVTVTGYTKSHKVMFQGALANQEAARWQ” the “soluble fraction (log2)” value was at least 0.43. In the case of “HMNIYFNIEDAVANAVVENGKMSAAIYEKNVDTGEVAKLAEVSMPVMGGNINITKTLLTKALISQLP”, the “soluble fraction (log2)” value is reported as -0.713. In the case of “HMNKAYLTVADMKKDKSLKNGDVVRTLGYYGYNDGDGAVYQIKDSHPEDYHIRLDNGLDAEQINY”, the “soluble fraction (log2)” value is reported as 0.174. With “HMNKEHINLDSSKFLSLLNKTKISMSNDETRHYLNGIYIHPTVSNKSSYLTGVATDSHRLSSSSIPVD” the “soluble fraction (log2)” value was -0.311. For “HMNKMIIELGEKLKALRTENHLRQDQVARLVNVEKSSISMYETGMRQPSYTTLVRLADVFNVTTDYLLGRK”, the “soluble fraction (log2)” value was 0.307. In the case of “HMNKPTSMYKLRLLLKHYHAGASKRWMADVLDISRSTLNVYLARIESLNLAFEEWEALSDLEVSRLLINP”, the “soluble fraction (log2)” value is reported as -0.852. In the case of “HMNKVAQFYRELVSTLSERLRNGERDIDALVEQARVRISQSGELTQSEIENVIRAVRRDLEEFALSYEE”, the “soluble fraction (log2)” value is reported as -1.73. For “HMNLAISAYQQLKSDIIRGVYAPGEKLLMSRLKVRYGLGIGPMREALSQLVSEHLVTAASQRGYRVAGM”, the “soluble fraction (log2)” value was 0.129. In the case of “HMNLAPLLTEYVQINFRRASEMKTYLEQANLISERGFLLADDQTNILMVRETGASIEEIRRTLNRF”, the “soluble fraction (log2)” value is reported as -1.61. With “HMNLFKAPMPGLIRTIVVAEGQEVKKGDVILILEAMKMENALKSPADLVVKSIKVQQGQAVEKNQLLIEF” the “soluble fraction (log2)” value was -0.14. For “HMNLGNLLKIYRKNSLLTQQQVADALNINRTTYTYYETGKTEPSIDTLHKLIKIFGITYDDLL”, the “soluble fraction (log2)” value was -0.337. In the case of “HMNLKDINLNVRHYKIIDFVREHGYASIETLTRQFGVSAQTVRRDIIYLDNQAVLKRHHGGVGTLPG”, the “soluble fraction (log2)” value is reported as -0.723. With “HMNLPTSGVDALTPAERRVARMAGDGQSNREIAQTLFVTRKTVEIHLTSVYRKLGIASRAELSARL” the “soluble fraction (log2)” value was -0.59. For “HMNLQGIISQKAIVTQTIEPYETGVAKLNGEEWTAMSKDETRIEAGKLVEVVAIEGVKLIVKEVS”, the “soluble fraction (log2)” value was -0.295. In the case of “HMNLVELKHAEEFNTLIIQDIGGRMKPAHTLASELVRKVFHNDDFNGIDPRKVFLSIIENSKVWFNVPFI”, the “soluble fraction (log2)” value is reported as -0.361. In the case of “HMNLYENLATHVKNAIRQGVYQPGDRLPSVRRLSEQHRVSQNTAVSAYRLLESHGWLEARPQSGFFARHP”, the “soluble fraction (log2)” value is reported as 0.297. In the case of “HMNLYERFPIHELWKETFNETLDEEEHITFITSEFKPENIVLGQGFIAAPSKKDAVDWLKVIRTVLIFYDS”, the “soluble fraction (log2)” value is reported as -1.61. In the case of “HMNMANFARIRLILELHDRGMSQDEISRSRHMSRSTITTVLRTARKKGITYAGIRKLDDAALQKLFFPDR”, the “soluble fraction (log2)” value is reported as 0.22. With “HMNMDLGHSISKLRTDANLTQEKFAQILNVSRQTVQKWEYGEALPDIHNIIKIAKFFNISLDALVLRS” the “soluble fraction (log2)” value was -0.222. With “HMNMIGDVIRNLRTVSSMTQTELGQRMGVIKQTISNWEKNISTPSIDAIVKLSSIFNVPTDYLL” the “soluble fraction (log2)” value was -0.178. With “HMNMMESNLFAVYDNDDIVKTLRQGAMEIDSLIRLMGKSSAEVLEKLTTMELQGIITRSGNIIALNN” the “soluble fraction (log2)” value was -1.38. With “HMNMNDIKFGKYLKRVRKKYNFSKEYVANILKVKESLVSDWESGRLTLNDEYMEKLSLFYGVNLYKK” the “soluble fraction (log2)” value was -0.123. With “HMNMPDVTVEWVKEQQAKFGLTDSDLAKSVNIDNANLARIFNQRGLTKIHKALFYYFFRAYGLQ” the “soluble fraction (log2)” value was -1.1. In the case of “HMNMRVLSEQPNKKSYQDGNLRLKVFGASFKKSDILNEALNQARVEETGLQIPKLLEVKQIDGQWTIVTE”, the “soluble fraction (log2)” value is reported as -0.393. For “HMNMVSGHLQVKKGYYYAVLSFYDSKNKRHVKYISTGLPEKGNKRKAEAELVKIRNAFEPPAE”, the “soluble fraction (log2)” value was -0.0995. With “HMNNESEGAIMLRQYSSLSAYLTKYNIDVNSKKAQQYASSLKLAQEKGSAEGQKYLSSISSELDD” the “soluble fraction (log2)” value was 0.00542. In the case of “HMNNIIEQIKADIKKLEEKLDKSSENALNKLEKDYSSLSTESKKKLDDAGYGARIKALRVKFAALSTQ”, the “soluble fraction (log2)” value is reported as at least 0.43. For “HMNNISKKIKELREQNNITQNKLANDLFIKQQTVAQWENGSRALKADSIISLAKYFNVSTDYLLGLTEN”, the “soluble fraction (log2)” value was -0.634. For “HMNNLKTKELSKIGYTNDKARSLVISIIPKHFKYHSKSEIIELLTNIKNKPEDYVSDEILGKIAETFMEKI”, the “soluble fraction (log2)” value was -1.19. With “HMNNLSEELNVTFPRTRDQLLNILHYVQHKYGYISKVSMQEIGNHIKMPVSEIYGTVTSYSEFKI” the “soluble fraction (log2)” value was -0.965. With “HMNNLTEEAINHLVLEVKNVLLTDALFLGKATDSQLMLRIKETIDQRNGQYNIGMNDRERIARRVFARLR” the “soluble fraction (log2)” value was at least 0.43. For “HMNNLVGKTKVLKSNTNIYAYKTMSGKFYSYLPNTRVRVLQDLGYINYIEVIATKRRGYVYENVY”, the “soluble fraction (log2)” value was -0.165. For “HMNNNIFVYPNPSINYINIDSDEEIWKLEIIQMSGEKINILPFSKRIDISFLSKGLYILNFNNYYIKFIK”, the “soluble fraction (log2)” value was -0.937. In the case of “HMNNQIFGLKFRQLRKQQHITLAKAAAGITSRQSLGNWETGKGELAFEKVLLLLKKINVQPIDFLESSIS”, the “soluble fraction (log2)” value is reported as 0.264. In the case of “HMNNQILYERLRDLRERNHFTQAFVSSKLNIGRATYSNYERGKRTPSLDVIMDLASFYKVPFTYF”, the “soluble fraction (log2)” value is reported as 0.113. In the case of “HMNNQMTFSKFLNEVDAGRVVEVEIQGNNIKGVLADGNRFNTFSPNYPNLVEKLSDKGVSITAAPK”, the “soluble fraction (log2)” value is reported as 0.205. With “HMNPASVLDGLKITSFSPTRAIVAGPGGSRIVFDNEAVVLGGIEWDVHIQRNGIEFTSQGQTVLLLFDRS” the “soluble fraction (log2)” value was -0.514. With “HMNPDDEMLLTYLTKLLVDKQFIVNSNDIFEYILRRVDRTYDGIYDIVSKLDVLSLEKKRQLTIPLIKEI” the “soluble fraction (log2)” value was 0.103. For “HMNPETIHNDYKAFIKFAFSGLSYYSKVWNQNREMITPGLLETLWQKYRHLSIGEIETILEKIIKEG”, the “soluble fraction (log2)” value was -1.24. For “HMNPGNTESFPVYQKRLGEIIQTLAGKKGQDINSPEVKELVGEYDFLTKQMFQLPDATSMVMEIATAYRN”, the “soluble fraction (log2)” value was -0.224. In the case of “HMNPKTELMVYLKKRDEWVASQILSDVLQVSTRTIRKFVKEINMDYQTENVILSSSKGYKLNQNLLSSL”, the “soluble fraction (log2)” value is reported as -0.281. For “HMNPLPALLRYFRQKAGLTQQDVAAALSISRSGYANYEEGRNIPNIEQAIKLSELLNHDFLYAYTLSS”, the “soluble fraction (log2)” value was -0.749. For “HMNPNYIKKLREKNQLTQEYLAAQIGVSRPTYAQIEQGQRGLTVTEAKKMADIFSLALDDFLAEKN”, the “soluble fraction (log2)” value was -0.442. With “HMNPSIALHDWLQSSEFKGSINLFAAALGMNPRTVEAWVYGRSTPSRRFWAKLYQITNLSRFRL” the “soluble fraction (log2)” value was 0.22. For “HMNPYLWQRVRLLFSNVGVINNSATVDLVFSAPKGVLTEDLANNFSAALVKKGKEELGLDDIKITISVIPN”, the “soluble fraction (log2)” value was -2.21. In the case of “HMNQADNFNSLTKREKDVLLLVTQGESNKSIADKLVLSEVTVKSHLNSIFKKLNVTNRTQAVLVAMQMNLV”, the “soluble fraction (log2)” value is reported as -0.85. For “HMNQAIIVPDVKGLPLEEATTFFENNDLRYTVIDSVYTKDVPPGAIYEMVPGAGSKVKEGRIIFVTLNAR”, the “soluble fraction (log2)” value was -0.565. With “HMNQASLTYSEFIANVESKAITRVTISGDTISGILADGKPFQTIYPMADLELLPILRRSGVDINVKEVQ” the “soluble fraction (log2)” value was 0.22. For “HMNQEIELLLREPDFTSAARLAMAINERFTNSARAIDPTSVKVRMPEGLDQASVDFVARLEDIEMSPDT”, the “soluble fraction (log2)” value was -0.587. For “HMNQEQQSAVMSALKATLPDLEAALEARQFKESKQLLKTAQNQFQQLDGRNRRGFQARIQLLAGQFRELS”, the “soluble fraction (log2)” value was -0.00484. For “HMNQIDDADRKRVVDEVAGQFSSMSLTEMRSDREKLLSRIIPQVQTTLNRLGLQTIDVEGIAREVIARVG”, the “soluble fraction (log2)” value was -0.288. For “HMNQIFAPMPGLVLEVKLSEGDVVAEGESAIILEAMKMENIIKSPINGIVKKVHVKKGQTIEKNTLIISFK”, the “soluble fraction (log2)” value was -1.06. In the case of “HMNQLSYTERRVLQVIEGGTTKTGEIEQALAAKMSRPTVHRALDALVGANRIHRLARGEYALGPAP”, the “soluble fraction (log2)” value is reported as 0.321. With “HMNQRQKQLLSILEQQGDWMKGKALATLLAVSDRTIRSDIEKINREVEGSILSHPHKGYLLSVENRQIAET” the “soluble fraction (log2)” value was 0.0959. For “HMNQSKYQTIADELKSKILSGEYPENTTIPPELQLQKDYQVSRHTIRQAIALLANEGFLRKEKGSGTYVDV”, the “soluble fraction (log2)” value was 0.254. With “HMNQTTYTVLYSGMDPADTGKVLTALNEMGVDARTQGEDTVLVPADRADEIRLELAAQGYPTS” the “soluble fraction (log2)” value was -0.0312. In the case of “HMNQYIFVLNEKGARITSFVDNTIPKEELIALAKQDYPNAADYIYSADGDSMLDEFMRGKLYVNGQFVAA”, the “soluble fraction (log2)” value is reported as -0.475. With “HMNREIVVYITGAVDNPGLYRLPLDSRLDDVLKLAVLSTNADREVLNPAQKLKDGQKIVVPYIVE” the “soluble fraction (log2)” value was -0.452.
